Data as given in patent publication US20090092602A1 (published 2009).

B1: hOAT (humanized IgG One Anti-Tissue Factor antibody) (antibody)
heavy: not shown
light: DIQMTQSPASLSASVGDRVTITCLASQTIDTWLAWYLQKPGKSPQLLIYAATNLADGVPSRFSGSGSGTDFSFTISSLQPEDFATYYCQQVYSSPFTFGQGTKLEIKRTVAAPSVFIFPPSDEQLKSGTASVVCLLNNFYPREAKVQWKVDNALQSGNSQESVTEQDSKDSTYSLSSTLTLSKADYEKHKVYACEVTHQGLSSPVTKSFNRGEC
B2: hFAT (humanized IgG Four Anti-Tissue Factor antibody) (antibody)
heavy: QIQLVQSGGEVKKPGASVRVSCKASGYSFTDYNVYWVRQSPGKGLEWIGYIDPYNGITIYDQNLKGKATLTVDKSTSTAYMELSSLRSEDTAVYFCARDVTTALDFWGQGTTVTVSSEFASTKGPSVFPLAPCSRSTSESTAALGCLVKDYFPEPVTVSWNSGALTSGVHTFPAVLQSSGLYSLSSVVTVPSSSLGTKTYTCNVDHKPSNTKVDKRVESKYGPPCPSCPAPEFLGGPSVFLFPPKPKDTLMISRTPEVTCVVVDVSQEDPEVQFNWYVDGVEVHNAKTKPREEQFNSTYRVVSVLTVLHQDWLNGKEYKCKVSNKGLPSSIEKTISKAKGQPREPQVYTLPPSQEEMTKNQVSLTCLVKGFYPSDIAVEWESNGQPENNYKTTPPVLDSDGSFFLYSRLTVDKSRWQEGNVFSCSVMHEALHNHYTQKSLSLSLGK
light: B1 light
notes: also called humanized cH36-IgG4; HC08 + LC09 IgG4 kappa
B3: cH36 chimeric anti-tissue factor antibody (antibody, human IgG4, V domains shown)
VH: EIQLQQSGPELVKPGASVQVSCKTSGYSFTDYNVYWVRQSHGKSLEWIGYIDPYNGITIYDQNFKGKATLTVDKSSTTAFMHLNSLTSDDSAVYFCARDVTTALDFWGQGTTLTVSS
VL: DIQMTQSPASQSASLGESVTITCLASQTIDTWLAWYQQKPGKSPQLLIYAATNLADGVPSRFSGSGSGTKFSFKISSLQAEDFVNYYCQQVYSSPFTFGAGTKLELK
notes: Mouse-human chimera; also called Sunol-cH36; chimeric H36
B4: H36.D2.B7 murine anti-tissue factor monoclonal antibody (antibody, mouse IgG2a, V domains shown)
VH: B3 VH
VL: B3 VL

Legend:
[1] = target: T1, lipidated recombinant human tissue factor (Innovin) (human, UniProt P13726 33-295, limits assumed); assay: cell-based or functional assay
[2] = target: T1, lipidated recombinant human tissue …; assay: cell-based or functional assay; remark: listed apart in the source
[3] = target: T2, recombinant human tissue factor (human, UniProt P13726 33-251, limits assumed); assay: SPR (BIAcore), recombinant human TF immobilized on CM5 chip, antibody 0.125-1 nM; apparent Ka
T2 construct: also called TF; human TF
Experimental: (§1) The affinity of humanized anti-TF antibody for TF was determined by surface plasmon resonance (BIAcore from Pharmacia Biosensor) with recombinant human tissue factor covalently immobilized on a CM5 sensor chip.

[4] = target: T2, recombinant human tissue factor; assay: SPR (BIAcore), recombinant human TF immobilized on CM5 chip, antibody 0.125-1 nM; apparent Kd
Experimental: as §1

| Binder | inhibition of TF function in PT assay at above 12.9 nM antibody [1] [%] | PT Time (in seconds) at 12.9 nM antibody (12.2 s at 0 nM) [2] [s] | PT Time (in seconds) at 25.8 nM antibody (12.2 s at 0 nM) [2] [s] | PT Time (in seconds) at 51.6 nM antibody (12.2 s at 0 nM) [2] [s] | Ka [3] [M⁻¹] | Kd [4] [nM] |
| --- | --- | --- | --- | --- | --- | --- |
| B1 | ~95 | 18.9 | 33.7 | 82.1 | – | – |
| B2 | ~95 | 20.5 | 41.7 | 94.8 | 2.99e+09 | 0.335 |
| B3 | ~95 | 19.8 | 40 | 101 | 7.94e+09 | 0.126 |
| B4 | – | – | – | – | 1.56e+10 | 0.064 |
